From patent US20250381289A1 (Genmab, published 2025)

Key:
[1] = molecular target: T1, EGFR on EGFR and cMET co-expressed tumor cell lines (UniProt P00533 25-1210, limits assumed); experiment: flow cytometry, EBC-1 cells (co-express EGFR and cMET; both arms contribute)
T1 construct: whole, on cells

[2] = molecular target: T2, cMET on EGFR and cMET co-expressed tumor cell lines (UniProt P08581 25-1390, limits assumed); experiment: as above
T2 construct: whole, on cells
Target sequence in this assay (P08581 25-1390 limits assumed): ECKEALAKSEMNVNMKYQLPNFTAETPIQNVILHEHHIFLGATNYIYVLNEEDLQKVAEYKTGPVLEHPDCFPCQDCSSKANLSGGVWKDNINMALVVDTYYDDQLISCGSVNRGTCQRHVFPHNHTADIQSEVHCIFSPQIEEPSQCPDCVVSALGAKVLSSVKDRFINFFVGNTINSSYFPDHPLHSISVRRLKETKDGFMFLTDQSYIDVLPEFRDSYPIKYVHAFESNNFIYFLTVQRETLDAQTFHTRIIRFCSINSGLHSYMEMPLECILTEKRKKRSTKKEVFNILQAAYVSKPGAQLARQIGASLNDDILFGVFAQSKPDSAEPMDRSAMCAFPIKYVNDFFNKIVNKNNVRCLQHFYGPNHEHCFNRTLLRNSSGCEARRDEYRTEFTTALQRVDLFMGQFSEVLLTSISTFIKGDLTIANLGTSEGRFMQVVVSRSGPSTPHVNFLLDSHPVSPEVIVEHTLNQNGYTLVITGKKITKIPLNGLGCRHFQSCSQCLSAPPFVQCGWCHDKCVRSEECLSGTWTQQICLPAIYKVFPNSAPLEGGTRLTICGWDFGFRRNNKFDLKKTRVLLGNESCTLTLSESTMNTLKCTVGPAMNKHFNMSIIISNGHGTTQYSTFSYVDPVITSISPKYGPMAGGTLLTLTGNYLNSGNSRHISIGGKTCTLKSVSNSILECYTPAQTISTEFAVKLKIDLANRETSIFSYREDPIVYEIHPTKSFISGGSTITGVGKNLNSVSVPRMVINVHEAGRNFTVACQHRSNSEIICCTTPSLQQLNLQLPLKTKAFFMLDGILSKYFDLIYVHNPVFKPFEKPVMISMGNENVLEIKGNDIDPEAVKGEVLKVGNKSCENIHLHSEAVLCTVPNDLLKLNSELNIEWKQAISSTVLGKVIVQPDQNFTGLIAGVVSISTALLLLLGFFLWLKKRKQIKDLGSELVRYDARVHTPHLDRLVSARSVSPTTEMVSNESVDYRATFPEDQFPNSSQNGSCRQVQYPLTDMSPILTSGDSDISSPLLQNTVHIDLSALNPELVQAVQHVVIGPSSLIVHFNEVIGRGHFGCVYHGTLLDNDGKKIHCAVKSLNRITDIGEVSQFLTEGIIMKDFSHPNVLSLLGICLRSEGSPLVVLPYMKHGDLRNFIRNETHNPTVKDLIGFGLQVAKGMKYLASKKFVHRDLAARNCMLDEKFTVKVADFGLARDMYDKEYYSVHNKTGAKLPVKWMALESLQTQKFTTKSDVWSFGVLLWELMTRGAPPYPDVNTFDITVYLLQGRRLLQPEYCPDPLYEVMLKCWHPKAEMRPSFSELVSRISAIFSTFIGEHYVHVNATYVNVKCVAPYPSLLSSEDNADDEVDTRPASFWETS

[3] = molecular target: T1, EGFR on EGFR and cMET co-expressed …; experiment: as above; remark: listed apart in the source
[4] = molecular target: T2, cMET on EGFR and cMET co-expressed …; experiment: as above; remark: listed apart in the source
[5] = molecular target: T1, EGFR on EGFR and cMET co-expressed …; experiment: flow cytometry, A431 cells (co-express EGFR and cMET; both arms contribute)
[6] = molecular target: T2, cMET on EGFR and cMET co-expressed …; experiment: as above
Target sequence in this assay (P08581 25-1390 limits assumed): as above

[7] = molecular target: T2, cMET on EGFR and cMET co-expressed …; experiment: flow cytometry, MKN-45 cells (co-express EGFR and cMET; both arms contribute)
Target sequence in this assay (P08581 25-1390 limits assumed): as above

[8] = molecular target: T1, EGFR on EGFR and cMET co-expressed …; experiment: flow cytometry, EBC-1 cells (co-express EGFR and cMET; both arms contribute); remark: listed apart in the source
[9] = molecular target: T2, cMET on EGFR and cMET co-expressed …; experiment: as above; remark: listed apart in the source
[10] = molecular target: T1, EGFR on EGFR and cMET co-expressed …; experiment: flow cytometry, HCC-827 cells (co-express EGFR and cMET; both arms contribute)
[11] = molecular target: T2, cMET on EGFR and cMET co-expressed …; experiment: as above
[12] = molecular target: T1, EGFR on EGFR and cMET co-expressed …; experiment: flow cytometry, NCI-N87 cells (co-express EGFR and cMET; both arms contribute)
[13] = molecular target: T2, cMET on EGFR and cMET co-expressed …; experiment: as above
Target sequence in this assay (P08581 25-1390 limits assumed): as above

human EGFR-Fc = molecular target: T3, human EGFR-Fc (human, UniProt P00533 25-645); experiment: blocking ELISA: coated human EGFR-Fc, antibody titrated, then EGF-His (blocked ligand), anti-His-HRP
T3 construct: not shown: Fc part, not described

human cMET-Fc = molecular target: T4, human cMET-Fc (human, UniProt P08581 25-932); experiment: blocking ELISA: coated human cMET-Fc, antibody titrated, then human HGF-His (blocked ligand), anti-His-HRP
T4 construct: not shown: Fc part, not described

[14] = molecular target: T1, EGFR on EGFR and cMET co-expressed …; experiment: flow cytometry on CAL-27 cells (co-express EGFR and cMET), PE anti-human Fc; signal of the whole bispecific, not resolved by arm
[15] = molecular target: T2, cMET on EGFR and cMET co-expressed …; experiment: as above
[16] = molecular target: T1, EGFR on EGFR and cMET co-expressed …; experiment: flow cytometry on NCI-H292 cells (co-express EGFR and cMET), PE anti-human Fc; signal of the whole bispecific, not resolved by arm
[17] = molecular target: T2, cMET on EGFR and cMET co-expressed …; experiment: as above
Target sequence in this assay (P08581 25-1390 limits assumed): as above

B1: Amivantamab (bispecific antibody, human IgG1, kappa)
heavy 1: not shown
light 1: not shown
heavy 2: not shown
light 2: DIQMTQSPSSVSASVGDRVTITCRASQGISNWLAWFQHKPGKAPKLLIYAASSLLSGVPSRFSGSGSGTDFTLTISSLQPEDFATYYCQQANSFPITFGQGTRLEIKRTVAAPSVFIFPPSDEQLKSGTASVVCLLNNFYPREAKVQWKVDNALQSGNSQESVTEQDSKDSTYSLSSTLTLSKADYEKHKVYACEVTHQGLSSPVTKSFNRGEC
notes: Bispecific positive control
For B1, the “EC50 (read off the curve)” value [1] was roughly 1 nM, the “EC50 (read off the curve)” value [2] was roughly 1 nM and the “EC50 (read off the curve)” value [3] was roughly 2 nM. The “EC50 (read off the curve)” value [4] was roughly 2 nM, the “EC50 (read off the curve)” value [5] was roughly 4 nM and the “EC50 (read off the curve)” value [6] was roughly 4 nM. The “EC50 (read off the curve)” value [7] was roughly 2 nM, the “EC50 (read off the curve)” value [8] was roughly 1 nM and the “EC50 (read off the curve)” value [9] was roughly 1 nM. For the same binder, the “EC50 (read off the curve)” value [10] was roughly 3 nM, the “EC50 (read off the curve)” value [11] was roughly 3 nM and the “EC50 (read off the curve)” value [12] was roughly 2 nM. For the same binder, the “EC50 (read off the curve)” value [13] was roughly 2 nM, the “IC50 (read off the curve)” value (human EGFR-Fc) was roughly 0.2 nM and the “IC50 (read off the curve)” value (human cMET-Fc) was roughly 0.8 nM. The “EC50 (read off the curve)” value [14] was roughly 3 nM, the “EC50 (read off the curve)” value [15] was roughly 3 nM and the “EC50 (read off the curve)” value [16] was roughly 3 nM. For the same binder, the “EC50 (read off the curve)” value [17] was roughly 3 nM.
